# Measurements published in paper PMC9824680.
# B1: β-Glucosidase from Thermotoga maritima (bgl) (Thermotoga maritima MSB8) (protein)
# chain: MNVKKFPEGFLWGVATASYQIEGSPLADGAGMSIWHTFSHTPGNVKNGDTGDVACDHYNRWKEDIEIIEKLGVKAYRFSISWPRILPEGTGRVNQKGLDFYNRIIDTLLEKGITPFVTIYHWDLPFALQLKGGWANREIADWFAEYSRVLFENFGDRVKNWITLNEPWVVAIVGHLYGVHAPGMRDIYVAFRAVHNLLRAHARAVKVFRETVKDGKIGIVFNNGYFEPASEKEEDIRAVRFMHQFNNYPLFLNPIYRGDYPELVLEFAREYLPENYKDDMSEIQEKIDFVGLNYYSGHLVKFDPDAPAKVSFVERDLPKTAMGWEIVPEGIYWILKKVKEEYNPPEVYITENGAAFDDVVSEDGRVHDQNRIDYLKAHIGQAWKAIQEGVPLKGYFVWSLLDNFEWAEGYSKRFGIVYVDYSTQKRIVKDSGYWYSNVVKNNGLED
# Substrate: O=[N+]([O-])c1ccc(O[C@@H]2O[C@H](CO)[C@@H](O)[C@H](O)[C@H]2O)cc1
# Experiment: purified protein
# Conditions: free enzyme, 100 mM citrate phosphate pH 6.5, 50 °C, pNPG 0.05–25 mM
protein,measurement,value
B1,Km,220 ± 80 µM
same,Vmax,7.27 µM/min
